Experimental data as given in publication PMC7935748 (Molecular cell, 2021).
Where a chain is given by its changes, count along the chain named. Names and notes keep the numbering of the source.

B1: Human RAD51 (natural protein, UniProt Q06609 1-339, looked up)
chain: MAMQMQLEANADTSVEEESFGPQPISRLEQCGINANDVKKLEEAGFHTVEAVAYAPKKELINIKGISEAKADKILAEAAKLVPMGFTTATEFHQRRSEIIQITTGSKELDKLLQGGIETGSITEMFGEFRTGKTQICHTLAVTCQLPIDRGGGEGKAMYIDTEGTFRPERLLAVAERYGLSGSDVLDNVAYARAFNTDHQTQLLYQASAMMVESRYALLIVDSATALYRTDYSGRGELSARQMHLARFLRMLLRLADEFGVAVVITNQVVAQVDGAAMFAADPKKPIGGNIIAHASTTRLYLRKGRGETRICKIYDSPCLPEAEAMFAINADGVGDAKD
B2: RAD51 K133R (natural protein, human, UniProt Q06609 1-339, looked up)
chain: B1 chain with K133R
B3: dT60 (ssDNA)
DNA: TTTTTTTTTTTTTTTTTTTTTTTTTTTTTTTTTTTTTTTTTTTTTTTTTTTTTTTTTTTT

Assays:
[1] = target: FLAG-GFP-RADX alanine mutant of residues 365-368 (human, UniProt Q6NSI4 1-855, 4-residue alanine mutation of residues 365-368); experiment: pull-down
[2] = target: FLAG-GFP-RADX R389E (human, UniProt Q6NSI4 1-855, R389E); experiment: pull-down
[3] = target: FLAG-GFP-RADX (human, UniProt Q6NSI4 1-855); experiment: pull-down
[4] = target: MBP-RADX QVPK (Homo sapiens, UniProt Q6NSI4 1-855, Q451A;V452A;P453A;K454A); experiment: EMSA
[5] = target: MBP-RADX (Homo sapiens, UniProt Q6NSI4 1-855); experiment: EMSA

Row | Binder | binding result [1] | binding result [2] | binding result [3] | binding result [4] | binding result [5]
1 | B1 | binds | binds | binds |  | 
2 | B2 |  |  | binds |  | 
3 | B3 |  |  |  | binds | binds
